The values that follow are results of earlier work, collected in PMC5453503.

In this series the target is VEGFR2 (Homo sapiens) (UniProt P35968).

Where “and” joins values, the source holds several entries; their conditions need not be identical. Equal values may be shown once.

UniProt P35968, sequence (P35968 20-1356): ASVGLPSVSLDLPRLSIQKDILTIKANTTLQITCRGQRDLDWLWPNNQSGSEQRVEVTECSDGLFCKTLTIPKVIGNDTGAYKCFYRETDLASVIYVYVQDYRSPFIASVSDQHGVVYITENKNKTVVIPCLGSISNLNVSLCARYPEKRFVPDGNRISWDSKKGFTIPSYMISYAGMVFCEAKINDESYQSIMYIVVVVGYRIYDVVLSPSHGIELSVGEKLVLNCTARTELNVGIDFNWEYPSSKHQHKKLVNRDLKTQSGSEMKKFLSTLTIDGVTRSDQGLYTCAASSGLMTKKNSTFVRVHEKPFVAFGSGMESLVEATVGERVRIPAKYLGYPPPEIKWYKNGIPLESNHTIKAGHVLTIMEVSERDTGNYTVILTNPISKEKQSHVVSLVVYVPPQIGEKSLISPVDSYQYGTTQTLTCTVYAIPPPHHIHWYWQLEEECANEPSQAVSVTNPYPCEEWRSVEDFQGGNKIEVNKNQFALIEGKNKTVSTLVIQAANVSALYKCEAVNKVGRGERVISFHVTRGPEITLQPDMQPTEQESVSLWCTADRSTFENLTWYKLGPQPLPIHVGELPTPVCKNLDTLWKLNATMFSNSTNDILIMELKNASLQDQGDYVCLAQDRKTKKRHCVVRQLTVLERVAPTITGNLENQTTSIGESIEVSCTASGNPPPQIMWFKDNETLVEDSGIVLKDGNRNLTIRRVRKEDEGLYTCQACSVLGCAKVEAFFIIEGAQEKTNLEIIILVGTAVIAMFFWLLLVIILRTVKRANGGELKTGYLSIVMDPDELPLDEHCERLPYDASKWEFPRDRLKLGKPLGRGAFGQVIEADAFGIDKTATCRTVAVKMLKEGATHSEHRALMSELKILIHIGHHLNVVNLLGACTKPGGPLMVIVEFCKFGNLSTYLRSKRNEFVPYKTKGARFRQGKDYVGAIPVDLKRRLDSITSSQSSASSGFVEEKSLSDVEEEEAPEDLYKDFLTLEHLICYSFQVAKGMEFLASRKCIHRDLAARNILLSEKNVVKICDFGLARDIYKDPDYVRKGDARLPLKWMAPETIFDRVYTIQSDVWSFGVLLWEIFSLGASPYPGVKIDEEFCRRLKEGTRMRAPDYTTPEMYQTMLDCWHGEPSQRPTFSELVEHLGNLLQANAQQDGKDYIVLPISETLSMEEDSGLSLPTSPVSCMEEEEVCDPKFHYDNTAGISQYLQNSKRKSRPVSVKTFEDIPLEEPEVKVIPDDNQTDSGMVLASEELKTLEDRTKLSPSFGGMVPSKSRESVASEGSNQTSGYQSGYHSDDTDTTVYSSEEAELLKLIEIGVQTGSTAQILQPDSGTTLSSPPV

As usually defined, the Kd is the free concentration of one partner at which half of the binding sites on the other are occupied at equilibrium, for simple one-to-one binding. Turning to VEGF165a (from UniProt P15692), the Kd was 0.41 nM and 0.76 nM.
